According to article PMC10907630, “Phosphorylation regulates tau’s phase separation behavior and interactions with chromatin”:

Experiments:
[1] = target: T1, tau 1N4R (UniProt P10636-7 1-412); experiment: fluorescence anisotropy; 10 mM NaCl; Hill fit; EMSA: 20 nM DNA or nucleosome, 20 mM HEPES pH 7.2, 10 mM NaCl (or 150), 0.5 mM TCEP, 0.1% Tween-20, 5% sucrose, room temperature 20 min; FA: 10 nM DNA, same buffer with 10 mM NaCl, 0.01% NP-40 substitute, room temperature 10 min; conditions: protein: recombinant; tags: none stated; label: 5' 6-FAM on strand 1; blunt
T1 sequence (P10636 other isoform, or with tags, fused parts or gaps): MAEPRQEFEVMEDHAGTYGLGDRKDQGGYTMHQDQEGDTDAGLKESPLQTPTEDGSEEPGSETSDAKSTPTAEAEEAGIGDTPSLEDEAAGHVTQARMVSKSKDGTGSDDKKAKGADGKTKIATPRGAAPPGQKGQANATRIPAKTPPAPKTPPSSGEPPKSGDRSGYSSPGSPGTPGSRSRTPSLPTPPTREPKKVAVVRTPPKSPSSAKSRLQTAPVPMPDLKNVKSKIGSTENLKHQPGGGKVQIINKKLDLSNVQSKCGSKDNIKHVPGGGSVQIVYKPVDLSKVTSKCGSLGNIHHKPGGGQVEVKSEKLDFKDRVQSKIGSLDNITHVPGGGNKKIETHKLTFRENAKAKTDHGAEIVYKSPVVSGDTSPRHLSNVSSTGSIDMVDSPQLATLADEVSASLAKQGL

[2] = target: T1, tau 1N4R; experiment: EMSA; 10 mM NaCl; Hill fit; EMSA: 20 nM DNA or nucleosome, 20 mM HEPES pH 7.2, 10 mM NaCl (or 150), 0.5 mM TCEP, 0.1% Tween-20, 5% sucrose, room temperature 20 min; FA: 10 nM DNA, same buffer with 10 mM NaCl, 0.01% NP-40 substitute, room temperature 10 min; conditions: protein: recombinant; tags: none stated; label: 5' 6-FAM on strand 1; blunt

B1: 22 bp DNA (dsDNA)
DNA 1: ATTTAGAAATGTCCACTGTAGG
DNA 2: CCTACAGTGGACATTTCTAAAT
Work on B1 yielded a Kd [1] of 6.3 ± 0.5 nM and a Kd [2] of 112 ± 3.7 nM.
